Experimental data from paper PMC5327734 (Nature communications, 2015).

Biological target: T1, pre-activated, recombinant, full length, human MST1 protein kinase (human, UniProt Q13043 1-487)
T1 sequence (looked up): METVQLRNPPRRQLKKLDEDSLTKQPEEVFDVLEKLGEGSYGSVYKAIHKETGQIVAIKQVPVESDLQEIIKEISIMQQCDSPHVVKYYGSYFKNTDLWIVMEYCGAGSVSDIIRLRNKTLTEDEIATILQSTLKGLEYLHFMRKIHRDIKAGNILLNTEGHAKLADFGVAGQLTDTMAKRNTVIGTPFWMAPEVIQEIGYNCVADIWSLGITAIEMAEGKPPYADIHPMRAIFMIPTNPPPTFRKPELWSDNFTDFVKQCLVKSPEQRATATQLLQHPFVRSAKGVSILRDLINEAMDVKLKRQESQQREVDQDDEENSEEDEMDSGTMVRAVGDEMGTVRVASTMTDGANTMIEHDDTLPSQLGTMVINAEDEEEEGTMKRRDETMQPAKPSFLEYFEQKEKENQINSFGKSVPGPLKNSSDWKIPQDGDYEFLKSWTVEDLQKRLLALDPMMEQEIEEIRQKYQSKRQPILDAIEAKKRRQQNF
Experiment: pull-down

binding result: binds
B1: GST-YAP1-PR/TEAD (residues 2-150) (domain or fragment, UniProt P46937 2-150, looked up)
chain: DPGQQPPPQPAPQGQGQPPSQPPQGQGPPSGPGQPAPAATQAAPQAPPAGHQIVHVRGDSETDLEALFNAVMNPKTANVPQTVPMRLRKLPDSFFKPPEPKSHSRQASTDAGTAGALTPQHVRAHSSPASLQLGAVSPGTLTPTGVVSG
